Reference: the nanobody polyreactivity screen of Harvey et al. (2022)

Assay: yeast display, Sf9 membrane polyspecificity reagent, FACS + sequencing; frameworks hold sequencing errors
Outline: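 A synthetic nanobody library was expressed on Saccharomyces cerevisiae BJ5465 by galactose induction for 36–48 hours. The library was stained for 1 hour at 4 °C with 10% biotinylated, detergent-solubilized Sf9 membrane reagent and enriched with streptavidin microbeads before FACS. Low and high (top ~1%) gates were set on anti-HA fluorescence for expression and streptavidin fluorescence for reagent binding, and each polyreactivity label reflects the gate of origin.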

| Sequence | polyreactivity (PSR sort gate) |
| --- | --- |
| QVQLVESGGGLVQAGGSLRLSCAASGNIFGQNAMGWYRQAPGKERELVAAISSNGGRTYYADSVKGRFTISRDNAKNTVYLQMNSLKPEDTAVYYCAAEAVYAYEWYYYWGQGTQVTVSS | high polyreactivity |
| QVQLVESGRGLVQAGGSLRLSCAASGIIFGSYAMGWYRQAPGKEMELVAAISRGTSTYYADSVKGRFTISRDNAKITVYLQMNSLNPEDTAVYYCAATRQEYGPHSRFVYVNYYYWGQGTQVTVSS | low polyreactivity |
| QVQLVESGGGLVQAGGSLRLSCAASGSTFSVYAMGWYRQAPGKERELVATISWGGGITYYADSVKGRFTISRDNAKNTVYLQMNSLKPEDTAVYYCHSSKYGYWGQGTQVTVSS | high polyreactivity |
| QVQLVEAGGGLVQAGGSLRLSCAASGFIFYGYMGWYIQAHGKERELVAAISYTGGSTYYADSVKGRFTISRDNAKNTVYLQMISLKPEDTAVYYCARDWRTKWFGYWGQGTQVTVSS | low polyreactivity |
| QVQLVESGGGLFQAGGSLRLSCAASGRTFGIYAMRWYRQAPGKERELVATISWRGGSTYYADSVKGRFTISRDNAKNTVDLQMNSLKPEDTAVYYCAAVLTALSPDFEYEYWGQGTQVTVSS | low polyreactivity |
| QVQLVESGGGLVQAGGSLRLSCAASGIIFIPYAMGWYRQAPGKEREFVAAISSSGGSTYYADSVKGRFTISRDNAKNTVYLQMNSLKPEDTSVYYCAAQYVSRRYSRYNYWGQGTQVTVSS | high polyreactivity |
| QVQLVESGGGLVQAGGSLRISCAASGSILDGNAMGLYRQAPGKERELFAGISESDGSTNYADSVKGRFTISRDNAKNTVYLQMNSLNPEDTAVYYCAADIWTCGDIPYDYWGQGTQVTVSS | low polyreactivity |
| QVQLVESGGGLVQAGGSLRLSCAASGRTFLRNAMGWYRQAPGKEREFVAAISTRDGRTYYADSVKGRFTISRDNAKNTVYLQMNSLKPEDTAVYYCNAVNTAGYYYYYAFFWDYDYWGQGTQVTVSS | high polyreactivity |
| QVQLVESGGGLVQAGGSLRLSCAASGITFGYNAMGWYRQAPGKERELVAAISWRVGSTSYADSVKGRFTISRDNAKNTVYLQMNSLKPEDTAVYYCAAVRYNYNFKMYYWGQGTQVTVSS | high polyreactivity |
| QVQLVESGGGLVQAGGSLRLSCAAAGRTFYNYAMGWYRQAPGKERELVAAIDWGSDSTYYADSVKGRFTISRDNAKNTVYLQMNSLKPEDTAVYYCAKRPKNKPVLGDYDHWGQGTQVTVSS | low polyreactivity |
| QVQLVESGGGLVQAGGSLRLSCAASGGIFGLYAMGWYRQAPGKERELVAAISWSGGSTYYADSVKGRFTISRDNAKNTVYLQMNSLKPEDTAVYYCAAEWDTNFWYDYWGQGTQVTVSS | low polyreactivity |
| QFQLVESGGGLVQAGGSLRLSCAASGRIFYSNAMGWYRQAPGKERELVAAISSSGGITYYADSVKGRFTISRDNAKNTVNLQMNSLKPEDSAVYYCAVDSRHYIRAFDHWGQGTQVTVSS | low polyreactivity |
| QVQLVESGGGLVQAGGSLRLSCAASGRIFYANAMGWYRQAPGKERELVAAISWSGGSTYYADSVKGRFTISRDNAKNTVYLQMNSLKPEDTAVYYCNALGRSYRSRRYDYWGQGTQVTVSS | high polyreactivity |
| QVQLVESGGGLFQAGGSLRLSCAASGRTFHANAMGWYRQAPGKERELVARINWSGTSTYYADSVKGRFTISRDNAKNTVYLQMNSLKPEDTAVYYCAAGWIRQYSSLYDYWGQGTQVTVSS | high polyreactivity |
| QVQLEESGGGLVQAGGSLRLSCAASGFIFSWYAMGWYRQAPGKERELVARISSSGGNTYYADSVKGRFTISRDNAKNTVYLQMNSLKPEDTAVYYCAATRYSLSGYGYWGQGTQVTVSS | high polyreactivity |
| QVQLVESGGGLVQAGGSLRLSCAASGFIFAYYAMGWYIQAPGKERELVAAISLSGARTYYADSVKGRFTISRDTAKNTVYLQMNSLKPEDTAVYYCAATPWSYEYYYWGQGTQVTVSS | low polyreactivity |
| QVQHVESGGGLVQARGSLRLSCAASGSIFFNTMGWYSQAPGKERELVAAITWSGGRTYYADSVKGRFTISRDNAKNTVYLQMNSLKPEDTAVYYCAKDQGSWRYDYWGLGTQVTVSS | low polyreactivity |
| QVQLVESGGGLVQAGGSLRLSCAASGLTFWFNAMGWYRPAPGKERALVGAIRNRGGSTYYADSVKGRFTISRDTAKNTVYLQMNSLKPEDTAVYYCAAVSWFLVGPRYYYWGQGTQVTVSS | high polyreactivity |
| QVQIVESGGGLVQAGVSLRLSCAASGRTSDGYAMGWYRQAPGKESELVAGITEGGGDTYYADSVKGRFTISRDNAKNTVYLQMNSLKPEDTAVYYCNAVEGSRLPYDYWGQGTQVTVSS | low polyreactivity |
| QVQLVESGGGLVQAGGSLRLSCAASGFIFGYYVMGWYRQAPGKERELVAAISGSGGRTYYADSVKGRFTISRDNAKNNVYLQMNSLKPEDTAVYYCNAVAFYRDYNYWGQGTQVTVSS | high polyreactivity |
| QVQLVESGGGLVQAGGSLRLSCAASGIIFDSNAMGWYRQAPGKERELVAAITRTATRTYYADSVKGRFTISRDQAQNTVYLQMNSLKPEDTAFYYCADRGSTPQPGVGYWGQGTQVTVSS | high polyreactivity |
| QVKLVESGGGLVQAGGSLRLSCAASGFTFRRYAMGWYRQAPGKERELVAGITSGGSTYYADSVKGRFTISRDNAKNTVYLQMNSLKPEDTAVYYCNTKVISRTSERRGNGFTRYDYWGQGTQVTVSS | low polyreactivity |

| Sequence | polyreactivity (PSR sort gate) |
| --- | --- |
| QVQLVESGGGLVQAGGSLRLSCAASGFTFGYYAMGWYRQAPGKERELVAAISKSGGSTYYADSVKGRFTISRDNAKNTVYLQMNSLKPEDCAVYYCAAIASIRGYYYWGQGTQVNVSS | high polyreactivity |
| QVQLVESGGGLVQAGGSLRLSCAASGGTLAYYAMGWYRQAPGKERELVAAITRSGGSTYYADSVKGRFTISRDNAKNTVYLQMNSLKPEDTAVYYCAALLAYCKNRWHIEYDYWGQGTQVTVSS | low polyreactivity |
| QGQLVESAGGLGQAGGSLRLSCAASGRTLGRYVMGWYRQGPGQVRELVAAISARTGSTYYADSVKGRFTISRDNAKNTVYLQMNSLKPEDTAVYYCATKFSSYDTRVSYDYWGQGTQVTVSS | low polyreactivity |
| QVQRVESGGGLVQAGGRLRLSCAASGRTFETNAMGWYRQAPGKERELVAAISRSGGSTRYADSVKGRFTISRDNAKNTVYLQMNSLKPEDTAVYYCAVRVGLGGGYGGQGTQVTVSS | high polyreactivity |
| QVQLVESGGGLVQAGGRLRLSCAASGFTIPYKAMGWYRQAPGKERELVAAISRSGTRTYYADSVKGRFTISRDNAKNTLYIQMNSLKPEDTAVYYCAKDTIGGASPHYYWGKGTQVTVSS | high polyreactivity |
| QVQLVESGGGLVQAGGSLRLSCAASGLTFNYYAMGWYRQAPGKERELVAAISSSTGSTYYADSVKGRFTISRDNAKYTVYLQMNSLKPEDTAVYYCAAVRTKAYVSRTSQSGYWGQGTQVTVSS | high polyreactivity |
| QVQLVESGGGLVQAGGSLRLSCAASGFTFRYYAMGWYRQAPGKERELVATITGYGGSTYYADSVKGRFTISRDNAKNTVYLQMNSLKPEDTAVYYCNTVWYTDVRYTRFYYWGQGTQVTVSS | high polyreactivity |
| QVQLVESGGGLVQARGSLRLSCAASGSISDYYAMGWYRQAPGKERELVAAISWDGGSTYYADSVKGRFTISRDNAKNTVYLQLNSLKPEDTAVYYCNAGSGASVGNNILYDYWGQGTQVTVSS | low polyreactivity |
| QVQLVESGGGLVQAGGSLRLSCAASGSTISKYAMGWYRQAPGKERYLVAAISSRGGSTYYADSVKGRFTISRDNAKNTVYLQMNSLTPEDTAVYYCNATPYPGGNGRWRFWKSYRYWGQGTQVTVSS | high polyreactivity |
| QVQLVESGGGLVQAGGTLRLSCAASGSMFDGNAMGWYRQAPGKERELVAAISRRGGSTYYADSVKGRFTISRDNAKNTVYLQKNSLKPEDTAVYYCNAYLSYFDGNYWGEGTQVTVSS | high polyreactivity |
| QVQLEESGGGLVQEGGSLRLSCAASGSTFVTYAMGWYRPSPGKARELVAAISQSGGSTYYADSVKGRFTISRDNAKNTVYLQMNSLKPEDSAVYYCAAEYWDIAYCFVWWIYDYWGQGTLVTVSS | high polyreactivity |
| QVQLVESGGGLVQAGGSLRLSCAASGSIFYPYARGWYRQAPGKERELVASITINDGSTYYADSVKGRFTISRDNAKNTVYLQMNSLKPADTAVYYSAVDWLSVTSTIKFEMDYWGQGTQVTVSS | low polyreactivity |
| QVQLVDSGGGLVQAGGSLRLSCAASGRIFSENAMVWYRQSRGKERELVAAITANGGDTYYADSVKGRFTISRDNAKNTVYLQMNSLKPEDTAVYYCAAETGGLGGDYWGQGTQVTVSS | low polyreactivity |
| QVQLVESGGGLVQAGGSLRLSCAASGSIFNYYAMGWYRQAPGKEMELVAGITTSGGYTYYADSVKGRFTISSDNAKNTVYLQMNSLKPEDTAVYYCAAYDYISSTYFLDDYWGQGTQVTVSS | low polyreactivity |
| QVQLVESGGGLVQAGGSLRISCAASGRIFGLYAMGWYRQAPGKERELVATINNSGGSTYYADSVKGRFTISRDNAKNTVYLEMKSLKPEDTAVYYCNAEFLYAASFIEYDYWGQVTQVTVSS | high polyreactivity |
| QVQLVESGGGLVQAGGSLRLSCAASGRTFANYAMGWYRQAPGKERELVAAISWSGGSTYYADSVKGRFTISRDNAKNSVYLQMNSLKPEDTAVYYCAALAGRAYGYGYWGQGTQVTVSS | high polyreactivity |
| QVQLVESGGGLVQAGGSLRLSCAASGFIFNYYTMGWYRQAPGKEREFVAAIRRSGTRTYYADSVKGRFTISRDNAKNTVYLQMNSLKPEDTAVYYCAADVYRTYGMDYWGQGTQVTVSS | high polyreactivity |
| EVQLVESGGGLVQAGGSLRLSCADSGGIFIFYALGWYRQAPWKEREFVASIRSNVGSTYYADSVKGRFTISRDNAKNTVYLQMNSLNPEDTAVYYCNSRYYWYRGYDYWGQGTQVTVSS | high polyreactivity |
| QVQLVESGGGLVQAGGSLRLSCAASGRTFERYAMGWYRQAPGKERELVADISSSGSTNYADSVKGRFTISRDNAKNTVYLQMNRLNPEDTAVYYCAADYWRHWYWDVVEFDYWGQGTQVTVSS | high polyreactivity |
| QVQLVESGGGLVQAGGSLRLSCADSGRIFGRYAMGWYRQAPGKERDLVAAIRSGGSTYYADSVKGRFTISRDNAKNSVYLQMNSLKPEDTAVYYCAADWGPFRLGYGYYYWGQGTQVTVSS | high polyreactivity |
| QVQLVESGGGLVQAGGSLRLSCAASGNTFPPNAMGWYRQAPGKERELVAAISWSGDSTYYADSVKGRFTISRDYAKNTVYLQMYSLKPEDTAVYYCAAAIFGEYEYWGQGTQVTVSS | low polyreactivity |
